The values that follow come from a protein production outcome set (Wang et al. 2014).

A short description of the data set: label from the status in PepcDB records.
Take “MKAFFSFVIRWVIPLLGLIALSLIIWFIGPLLEFLVPEGRRWALIIFIFALWIGYRVFCIIQARRNAAKVLQSLAADTPPDPDSVATAEELAALRQRMDEALALLKKAKLGGDERRNLYELPWYVIIGPPGSGKTTALVNSGLHFPLAAQLGAGAVRGVGGTRNCDWWFTDQAVLLDTAGRYTTQDSHATVDKAAWLGFLDLLKTQRSRRPIDGAFVAISLSDLLLGSEAERAAHAAAIRLRIQELYTQLGVRFPIYLMLTKLDLVPGFMEFFDSLSKEERAQVWGMTFALDDGKSGDSPLAHLPAELAALEQRLNERLVERLQQERDPARRDLIYGFPQQFAALKESLQSFLEGVFKPNAFEERVLLRGVYFTSGTQEGSPIDRLIGAMAQSMNLDRQHLARQTGTGRSYFIEKLFSAVAFAERGLVGVNPKVERRRKWIARGALAGTVALVLVVSTLWIISYRANQAYIAQVDQRVGPVRQDVQNLSPAQRDVLAVLPLLNATRHLAGDAPGWAEGLGLYQGDMLEAESASVYRKLLVAVFAPRLMTRIEEQLHSGGNSDFLYEGLKAYLMLADSEHYDPDFIKAWITLDWDHTLARDLPPEQRQALTGHLQALFEKHPPNARLDQRLIDDLRRQLQQLPVAQRVYDRVKRAKLPDGVPDFRLSEAGGRDAALVFTRKSGKPLSEPLSGLFTAKGYRQGFLLASLNQAGTLAEEQWVLGRDQADQQNVASLAADVRRLYFQDYLRQWDALLADIDFVPITSVAQAADVLRILSGPTSPLKKLLVAVAKETDLQQEERLLAAQGQKVEGGVDQLKQRLGNLLGQEQSANPAAVASSEDPVSAHFAELNSLVSKGEGEPAAIDGLLADMNALYVQVSAMVGASGDALLGEAKNQASAAAARVSLTAERQPPVVQGLVKSVVGSTTNTMMGGVRNQLNAAWVSEVVNVYRQSLSGRYPMSPGSSRDATLEDFGQFFGTGGVMDNYFRKYLQPYVNTSTTTWSWQPGAAQKLGISPGVLQTFQRASNIRDAFFRSSGGTQPAVRFELKPVAMDANISQFLLDLDGQQLSYDHGPSRPVAMQWPNPGSIGVVRLSIMPPSATGRSGITLDGPWAWFRLLEQSDLTATNSPDRFNLRLRVDGASISYELRASSAFNPFKSRVLSGFSLPERL”: the protein production result is given as “failed”.

As for “MKAKEVSLVALFVALTSVGAQISVSIGPVPLTLQVFFVILAGLVLGPKLGFLSILIYDILGALGIPVFAGFSGGIAHILGPTGGYIIAFPIATFIAGLGRGKVRYLTSLMGLLVIYLIGWMWLARFVGFNKAFILGVLPFIVPDIVKAATAVIIAERLQGNT”, the protein production entry is “failed”.

As to “MKANAIASDIKISKRDLEVAALAVIGTVAYIHYLWSFVLKITSPILIARGIFETTYSVLSIGLAKYVRIYYPLGIASSFTGAALTVIKLHLYESEIFSIINIVFDIFSVPVCAFLFIKNMEVINWH”, the protein production result is recorded as “failed”.

With “MKANNHFKDFAWKKCLLGASVVALLVGCSPHIIETNEVALKLNYHPASEKVQALDEKILLLRPAFQYSDNIAKEYENKFKNQTALKVEQILQNQGYKVISVDSSDKDDLSFSQKKEGYLAVAMNGEIVLRPDPKRTIQKKSEPGLLFSTGLDKMEGVLIPAGFVKVTILEPMSGESLDSFTMDLSELDIQEKFLKTTHSSHSGGLVSTMVKGTDNSNDAIKSALNKIFANIMQEIDKKLTQKNLESYQKDAKELKGKRNR”, the protein production entry is “failed”.

As for “MKAPELQIQQWFNSATDLTLADLRGKVIVIEAFQMLCPGCVMHGIPLAQKVRAAFPEDKVAVLGLHTVFEHHEAMTPISLKAFLHEYRIKFPVGVDQPGDGAMPRTMAAYQMRGTPSLLLIDKAGDLRAHHFGDVSELLLGAEIATLLGEAAPSVQKQAGTPQGDANCDNDGCTV”, the protein production result is reported as “not failed”.

As to “MKAYTKLLASLVLLSGAYGAPGFANTPELSDKTFRTVNKVQELIATEKYADALSKLNSALSSTSKKQYDRAVLLQQMGFLYSLQDDYPKAAKYFADALSLNALPVPVAQQVRYSLAQLYLAEGQFKKSVATMNEWFKIAETTEEKPQAHAYITLASAYVQLEDYKNAIPPAKQAIAMSKEPSESWYQLLMSAHYELKQFKSVAGVLKILTTKYPKNKRYWTQLSGIYMELNQERNALSTLEMAHKMGLLEGEKEYLRLVNFQAYQGVPFRAAKTLQAAFDNGHVERNAKNLETLGSFWQQAQELEQAIDVYQQAYNLAPQAKTQIKIARLMILDKQYTEATKFTQNAAPDAKHEQKGELSYIRGMAYFELNQPSNALKAMKSAAQSPDMRAMASPWINFLESQG”, the protein production result is reported as “failed”.

For the sequence “MKCKDDMSAVLTAEQALKLVGEMFVYHMPFNRALGMELERYEKEFAQLAFKNQPMMVGNWAQSILHGGVIASALDVAAGLVCVGSTLTRHETISEDELRQRLSRMGTIDLRVDYLRPGRGERFTATSSLLRAGNKVAVARVELHNEEQLYIASATYMVG”, the protein production entry was “failed”.

With “MKCKRLNEVIELLQPAWQKEPDLNLLQFLQKLAKESGFDGELADLTDDILIYHLKMRDSAKDAVIPGLQKDYEEDFKTALLRARGVIKE”, the protein production result is “failed”.

“MKCNERDCNNDNGEEDEKDTNTTIAVKLPATTALIVGYDPIDDQHKALSLKRKRTEKLSFINALKGFVQWGSEAVFIEYKGKLASIDLETVKSLGALMDSKEPPAPVNLLF”: the protein production result was “failed”.

Consider “MKDKIIDNAITLFSEKGYDGTTLDDIAKSVNIKKASLYYHFDSKKSIYEQSVKCCFDYLNNIIMMNQNKSNYSIDALYQFLFEFIFDIEERYIRMYVQLSNTPEEFSGNIYGQIQDLNQSLSKEIAKFYDESKIKMTKEDFQNLILLFLESWYLKASFSQKFGAVEESKSQFKDEVYSLLNIFLKK”, for which the protein production entry is “failed”.

Take “MKDKRTPMNAFRPKAQTALVVALSLFMAACSNNPLMRTSAATSSDVADEIDRTLEQAEQSQRAASNVSAVPAPSAADISSQLLPPLSSSPQQDERFDVNASEVPASSFFEALVAGTRYNVVVRPDVATTVSLRLSDVTVPEVMDIAADLYGLDITRSGRLYRVAADQVQTRLFPIDYLHFKRRGGSETRVSSGQVSSSRSNREGAGSNDNNEDNETRNLVGTTISTQTESDFWRDIRDALNMIVGGDNGQVVVNPGAGLVMVRAGADDLRLVENYLRKTELIMQRQVVLEAKILEVGLNEGYQQGIDWNDVQSSAGRADYFTSQSLGGQQIRTPDIGGLFSATVSAGDFTGLIELLGQQGNVQILSSPRISTVNNQKAVIKVGTDEFFVTDIDFDDNNSAVTATDSTSTSVELTPFFSGISLDVTPQIAEDGAITLHVHPSVSEVADQEKVITIGERDVTLPLARSTVRETDSVIRAESGQIVVIGGLIQNSSEDNNSAVPFFSEIPLLGELFKQRNFESRKSELVILLRPVVANAGQMQADVSASRERMNVLRELLNSSESVKPQPETAPR”: the protein production entry is given as “failed”.

Consider “MKDLIKVQQKLIPDLIDKMYRRFYILSTISQNQPVGRRSLSEHMDMTERVLRSETDMLKKQELIRVKPTGMEITNEGTEVLAQLGEYFNVYSDDHKLASAIKDKFHIKDVHVIPGDSDSNRTVKREMGQQAGQLLEGILYEDAIVSVTGGSTMACVSESIHLLPFNVFFVPARGGLGENVVYQANTIASSMAQQAGGYYTTLYVPDNVSESTYDTLMLEPSVMHTLDKIKQANITIHGIGDALKMAHRRQSSQNVIDNLQHHQAVGEAFGYYFDAQGQIVHKVKTIGLQLEDLENKDFIFAVAGGQSKGEAIKAYLSIAPENTVLITDEAAAKVILQ”, for which the protein production entry is “not failed”.

As for “MKDPNSQYQIDYVLLFILFAIGIVSCCAIASAQASLPPFLQNVNFVLKQIQWYFIGFIAIGVIMIIDFDRYQKIAWYLYSFAMVLLIGLELQVPGAVTIKGATAWYRLPGIGNFQPSEIMKLFLIIVIGRIIANHNEKYFSQTIHDDFLLLGKIFATSLPPLLLIAKEPDLGNTMVISAMLAAMILVSGIRWRFIFGLVSGTFVAGSTLIYIFFTHTDFFKAHILKEYQLNRFYGWLAPYKYDAQGYQLRQAFLATGSGEMQGKGWENGQVYFPEPHTDFIFTNVAEQFGFLGASVIISLFFLLIFRMIHIALESNDPFGSYICAGTIGMFTFQVFQNIGMTIGLLPITGITLPLMSYGGSSLLTYMIAIGFILNVRSRTKIFMFK”, the protein production result is “failed”.

As to “MKDTDETAFLNSLFMDFTSENELELFLKSLDEVWSEDLYSRLSAAGLIRHVISKVWNKEQHRISMVFEYDSKEGYQKCQEIIDKEFGITLKEKLKKFVFKIHNNRGVVVSEFIRST”, the protein production entry was “not failed”.

For the sequence “MKDTFRLENQTIYFGTERAISASPQTIWRYLTETDKLKQWFPELEIGELGVNGFWRFILPDFEETMPFTDYAEEKYLGVTWDTGIIYFDLKEQAPHQTLLVFSESLPENFTTPRHKDIAGWSIVLNRLKQVVETPDAAPEKIDFPQIENHYLEKLTNLEN”, the protein production entry is “not failed”.

Take “MKEGKWFASANNQNKFLDPRERGNILNYLKVCLLLARAVRRMHAAGLCHSDLSYKNVLIDPEQGHACIIDVDGLVVPGKFPPDVVGTPDFIAPEVVKTSHLLKEDPQRILPNITTDRHALSVLIYMYLFYRHPLRGGKIHDMDDEVRDESLAMGERALFIEHPTDRSNAVKLNQVKPSSLPWADPQKVPYTIMGPYLTQLFEKAFIDGLHDPSKRPTADEWETALVKTVDLIQPCQNTACEQKWYVFSGKTKPVCPYCLEHHHHHH”: the protein production entry is “failed”.

With “MKEIESKTSAKIITDTFVRIFLIFSLLITIIVSGIVAFTSLQIRKSEGAALLNSVQTAATNGQVNWDEFKLDSEKDEKATFVRLTSPSGQREESQGTTNFLKSRKSWGNFSLLRDDIFLYSSKTSKNGTKAELWLNINVVVKSMIRAILVIIAVMIFLFFLALILIQKAARTISQPLTDIVVATDGKDVKQVPVSKNPLEVHQLSQSFNRLLNRLNQKIENEQQFVSDASHELRTPVAAIRGHVNLLKRRWHEHPEIVDESLSYIDEESMRMKVLIENLLTISRGNHLEIKKERINLSKFTDKVVSEIQLALRQKINFDIQTDLFVSMDKMALYKIIIIFLENAGKYSPSNSEITINITLENHQVDFQVADEGIGVPEEEKDNIFERFYRIDKSRSSEIPGTGLGLAIAKEYAQLNDAKVFVSNNSPKGSTFHLLMESIEN”, the protein production entry is “failed”.

On to “MKEIVTIENVSFNYHNRAVFKDFNLSIQEGDFLCVLGESGSGKSTLLGLILGLLKPSLGSVKIFNETLSNNAFLRQKIGYIAQGNSLFSHLNAMQNMTFCLNLQGINKQAAQKEAKALALKMGLDESLMDKFPNELSGGQAQRVGIIRGIIHRPELILLDEPFSALDSFNRKNLQDLIKEIHQNSHATFIMVTHDESEAQKLATKTLEIKALKQEQ”, for which the protein production entry was “failed”.

For “MKEKENIQKIIIAMIQTVVVYFSASLTLTLITPNFKSNKDLLFVLLIHYIVFYLSDFYRDFWSRGYLEEFKMVLKYSFYYIFISSSLFFIFKNSFTTTRLSFFTFIAMNSILLYLLNSFLKYYRKYSYAKFSRDTKVVLITNKDSLSKMTFRNKYDHNYIAVCILDSSEKDCYDLKHNSLRIINKDALTSELTCLTVDQAFINIPIELFGKYQIQDIINDIEAMGVIVNVNVEALSFDNIGEKRIQTFEGYSVITYSMKFYKYSHLIAKRFLDITGAIIGLLICGIVAIFLVPQIRKDGGPAIFSQNRVGRNGRIFRFYKFRSMRVDAEQIKKDLLVHNQMTGLMFKLDDDPRITKIGKFIRKTSIDELPQFYNVLKGDMSLVGTRPPTVDEYEKYNSTQKRRLSFKPGITGLWQISGRNNITDFDEIVKLDVQYINEWSIWSDIKIILLTLKVVLLGTGAK”, the protein production entry is “failed”.

In the case of “MKEKIPFYNEKEFHYMMKKTKKGTFSGWYIINPENNSVEFSGSFNRQFKLNKPVIPVNTEYVTRKEFNEYKDSNDQRLTKIENKVDKLEIKVDKLEKKVDKLEVKVDKLVETVNAQGEDLNNFKVEVRGTLQSQGETLQLILQTLQGMSKRLDSVEGRLDSMDGRLDSMETRLDKIDPLKLEHHHHHH”, the protein production entry is recorded as “failed”.

Take “MKELNDIEVTCVSGGTLSGMIVGAVDGAATGMAIGGKWGGAGGFGFGALSQLVGLIVPTAMGAIAGGTVGLFTNAETAVGYLGQYRENFGPGDVGRTTI”: the protein production result is reported as “failed”.
